# Entries after “also recorded” stand apart in the source; their conditions may differ.
# Legend:
# Ad3-GFP virus = test: Competition of Ad3-GFP virus infection on HeLa cells; format: cell-based, adenovirus serotype 3 (Ad3); conditions: HeLa cells pre-incubated with knob, 100 pfu/cell Ad3-GFP, GFP at 18 hours
# Procedure: FIG. 3. Competition of Ad3 virus by dimerized Ad3 knob mutants. A) Relative attachment of ^3H-labeled Ad3 virus in the presence of dimeric fiber knob mutants. 1.8×10^5 HeLa cells were incubated with Ad3 knob mutants at a concentration of 2.5 and 100 μg/ml on ice for 1 hour. Then 400 pfu/cell of ^3H-Ad3 virus was added on ice for another hour. Unbound virus particles were washed away. Attachment of virus particles incubated with PBS was taken as 100%. N=3. B) Competition of Ad3-GFP virus infection on HeLa cells. 1.5×10^5 HeLa cells were seeded into 24 well plates. Cells were incubated with the Ad3 knob mutants at increasing concentrations for one hour at room temperature. 100 pfu/cell of Ad3-GFP virus were then added and GFP expression was analyzed 18 hours later by flow cytometry. Left panel: percentage of GFP positive cells. Right panel: mean fluorescence intensity. N=3. The standard deviation was less than 10%. C) Relative attachment of ^3H-labeled Ad3 virus in the presence of dimeric fiber knob mutants with multiple mutations. The study was performed as described in […]) The standard deviation was less than 10%. D) Competition of Ad3-GFP virus infection on HeLa cells. The study was performed as described in C) The standard deviation was less than 10%.
# FIG. 9. Analysis of dimeric Ad3 fiber knob mutants with increased affinity to DSG2. A) Competition of Ad3-GFP virus infection on HeLa cells with dimeric affinity-enhanced mutant Y250F and JO-1 (dimeric wt Ad3 fiber knob). The experimental setting is as described for FIG. 3C. left panel: percentage of GFP positive cells. Right panel: mean fluorescence intensity. N=3. The standard deviation was less than 10%. […] 100 pfu/cell of Ad3GFP virus were then added and GFP expression was analyzed 18 hours later. […]
# Competition studies were performed on HeLa cells, which express DSG2 (42). […] Transduction was measured based on GFP expression (FIG. 3B). […] Dimeric Ad3 knob mutants with combined mutations were also analyzed for their ability to compete with Ad3 virus for attachment (FIG. 3C) and infection (FIG. 3D).
# [1] = tested on: MDA-MB-231 orthotopic TNBC tumors; test: Enhancement of nab-paclitaxel/cetuximab therapy in triple negative breast cancer model; format: in vivo, CB17 SCID-beige mice; conditions: 2 mg/kg i.v. 1 hour before cetuximab 10 mg/kg i.p. and nab-paclitaxel 5 mg/kg i.v., weekly; N=10
# Procedure: FIG. 10. Combination of affinity-enhanced JO-1 versions with chemotherapy. A) Enhancement of irinotecan (I) therapy. The experimental setting was the same as in FIG. 5B. […] N=5. […] Mammary fat pad tumors were established from primary ovarian cancer ovc316 cells. Treatment was started when tumors reached a volume of 100 mm^3 Mice were injected intravenously with 2 mg/kg JO-1 or with 0.5 mg/kg JO-4, followed by an intravenous injection of PEGylated liposomal doxorubicin (PLD) (1 mg/kg) one hour later. Treatment was repeated weekly. […] A total of 4×10^6 TNBC MDA-MB-231 cells were injected into the mammary fat pad of CB17 SCID-beige mice. JO-4 (2 mg/kg) was intravenously injected 1 hour before the application of cetuximab (C) (10 mg/kg, i.p.) and nab-paclitaxel (nab-P) (5 mg/kg, i.v). Treatment was given weekly. N=10 P<0.01 at day 25 for nab-P+C vs JO-4+nab-P+C.
# A549, MDA-MB-231, and ovc316 xenograft tumors were established by injection of the corresponding tumor cells into the mammary fat pad (1:1 with Matrigel) of CB17 mice. TC1-DSG2 tumors were established by subcutaneous injection of TC1-DSG2 cells into DSG2 transgenic mice. […] Tumor volumes were measured three times a week. […]
Molecule,Competition of Ad3-GFP infection based on GFP expression (Ad3-GFP virus),Enhancement of nab-paclitaxel/cetuximab therapy [1]
D261N (protein) MKVSALKEKVSALKEKVSALKEKVSALKEKVSALKEGSGGGSGGGSGGGSNSIALKNNTLWTGPKPEANCIIEYGKQNPDSKLTLILVKNGGIVNGYVTLMGASDYVNTLFKNKNVSINVELYFDATGHILPDSSSLKTDLELKYKQTADFSARGFMPSTTAYPFVLPNAGTHNENYIFGQCYYKASNGALFPLEVTVMLNKRLPDSRTSYVMTFLWSLNAGLAPETTQATLITSPFTFSYIREDD,least reduced,–
JO-4 (protein) MKVSALKEKVSALKEKVSALKEKVSALKEKVSALKEGSGGGSGGGSGGGSNSIALKNNTLWTGPKPEANCIIEYGKQNPDSKLTLILVKNGGIVNGYVTLMGASDYVNTLFKNKNVSINVELYFDATGHILPDSSSLKTDLELKYKQTADFSARGFMPSTTAYPFVLPNAGTHNENFIFGQCYYKASDGALFPLEVTVMLNKRLPDSRTSYVMTFLWSLNAGLAPETTQATLITSPFTFSYIREDD,–,significantly increased nab-paclitaxel/cetuximab therapy; also recorded: enhances therapy
